Measurements as given in patent publication US20100222256A1.

Molecular target: CXCR4 ligand
Assay: cell-based or functional assay

Substance: T140 (peptide)
- EC50 (nM): anti-HIV activity, concentration where MT-4 cell death by HIV-1 (IIIB) infection is inhibited by 50% (MTT method): 3.3 nM
